T1: internally quenched peptide probe with CM AWGLSGRS (SEQ ID NO: 686)
T1 chain: SAWGLSGRSGKR

T2: internally quenched peptide probe with CM LSGKSPWGL (SEQ ID NO: 178)
T2 chain: SLSGKSPWGLGKR

T3: internally quenched peptide probe with CM LSGRSPAGL (SEQ ID NO: 694)
T3 chain: SLSGRSPAGLGKR

T4: internally quenched peptide probe with CM LSGRSPWGL (SEQ ID NO: 177)
T4 chain: SLSGRSPWGLGKR

T5: internally quenched peptide probe with CM PAGLSGRS (SEQ ID NO: 687)
T5 chain: SPAGLSGRSGKR

T6: internally quenched peptide probe with CM PWALSGRS (SEQ ID NO: 688)
T6 chain: SPWALSGRSGKR

T7: internally quenched peptide probe with CM PWGASGRS (SEQ ID NO: 689)
T7 chain: SPWGASGRSGKR

T8: internally quenched peptide probe with CM PWGLAGRS (SEQ ID NO: 690)
T8 chain: SPWGLAGRSGKR

T9: internally quenched peptide probe with CM PWGLSARS (SEQ ID NO: 691)
T9 chain: SPWGLSARSGKR

T10: internally quenched peptide probe with CM PWGLSG (SEQ ID NO: 684)
T10 chain: SPWGLSGGGSKR

T11: internally quenched peptide probe with CM PWGLSGAS (SEQ ID NO: 692)
T11 chain: SPWGLSGASGKR

T12: internally quenched peptide probe with CM PWGLSGKS (SEQ ID NO: 150)
T12 chain: SPWGLSGKSGKR

T13: internally quenched peptide probe with CM PWGLSGR (SEQ ID NO: 163)
T13 chain: SPWGLSGRGSKR

T14: internally quenched peptide probe with CM PWGLSGRA (SEQ ID NO: 693)
T14 chain: SPWGLSGRAGKR

T15: internally quenched peptide probe with CM PWGLSGRS (SEQ ID NO: 12)
T15 chain: SPWGLSGRSGKR

T16: internally quenched peptide probe with CM WGLSGRS (SEQ ID NO: 685)
T16 chain: GSWGLSGRSGKR


What was measured:
[1] = molecular target: T1, internally quenched peptide probe with …
[2] = molecular target: T2, internally quenched peptide probe with …
[3] = molecular target: T3, internally quenched peptide probe with …
[4] = molecular target: T4, internally quenched peptide probe with …
[5] = molecular target: T5, internally quenched peptide probe with …
[6] = molecular target: T6, internally quenched peptide probe with …
[7] = molecular target: T7, internally quenched peptide probe with …
[8] = molecular target: T8, internally quenched peptide probe with …
[9] = molecular target: internally quenched peptide probe with CM PWGLRS (SEQ ID NO: 48)
[10] = molecular target: T9, internally quenched peptide probe with …
[11] = molecular target: T10, internally quenched peptide probe with …
[12] = molecular target: T11, internally quenched peptide probe with …
[13] = molecular target: T12, internally quenched peptide probe with …
[14] = molecular target: T13, internally quenched peptide probe with …
[15] = molecular target: T14, internally quenched peptide probe with …
[16] = molecular target: T15, internally quenched peptide probe with …
[17] = molecular target: internally quenched peptide probe with CM RSPWGL (SEQ ID NO: 90)
[18] = molecular target: T16, internally quenched peptide probe with …

| Protein | Probe Cleavage (pM/s) [1] | Probe Cleavage (pM/s) [2] | Probe Cleavage (pM/s) [3] | Probe Cleavage (pM/s) [4] | Probe Cleavage (pM/s) [5] | Probe Cleavage (pM/s) [6] | Probe Cleavage (pM/s) [7] | Probe Cleavage (pM/s) [8] | Probe Cleavage (kcat/KM (M^-1 s^-1)) [9] | Probe Cleavage (pM/s) [9] | Probe Cleavage (pM/s) [10] | Probe Cleavage (pM/s) [11] | Probe Cleavage (pM/s) [12] | Probe Cleavage (kcat/KM (M^-1 s^-1)) [13] | Probe Cleavage (pM/s) [13] | Probe Cleavage (pM/s) [14] | Probe Cleavage (pM/s) [15] | Probe Cleavage (kcat/KM (M^-1 s^-1)) [16] | Probe Cleavage (pM/s) [16] | Probe Cleavage (kcat/KM (M^-1 s^-1)) [17] | further results |
| --- | --- | --- | --- | --- | --- | --- | --- | --- | --- | --- | --- | --- | --- | --- | --- | --- | --- | --- | --- | --- | --- |
| matrix metalloprotease 2 (MMP2) (protein) YNFFPRKPKWDKNQITYRIIGYTPDLDPETVDDAFARAFQVWSDVTPLRFSRIHDGEADIMINFGRWEHGDGYPFDGKDGLLAHAFAPGTGVGGDSHFDDDELWTLGEGQVVRVKYGNADGEYCKFPFLFNGKEYNSCTDTGRSDGFLWCSTTYNFEKDGKYGFCPHEALFTMGGNAEGQPCKFPFRFQGTSYDSCTTEGRTDGYRWCGTTEDYDRDKKYGFCPETAMSTVGGNSEGAPCVFPFTFLGNKYESCTSAGRSDGKMWCATTANYDDDRKWGFCPDQGYSLFLVAAHEFGHAMGLEHSQDPGALMAPIYTYTKNFRLSQDDIKGIQELYGASPDIDLGTGPTPTLGPVTPEICKQDIVFDGIAQIRGEIFFFKDRFIWRTVTPRDKPMGPLLVATFWPELPEKIDAVYEAPQEEKAVFFAGNEYWIYSASTLERGYPKPLTSLGLPPDVQRVDAAFNWSKNKKTYIFAGDKFWRYNEVKKKMDPGFPKLIADAWNAIPDNLDAVVDLQGGGHSYFFKGAYYLKLENQSLKSVKFGSIKSDWLGC | 816 pM/s | 37.1 pM/s | 2080 pM/s | 48.9 pM/s | Above the limit of quantification | 4890 pM/s | 202 pM/s | 4870 pM/s | 140000 M⁻¹ s⁻¹ | 3800 pM/s | 9580 pM/s | 3100 pM/s | 4370 pM/s | 59000 M⁻¹ s⁻¹ | 1620 pM/s | 6540 pM/s | 6100 pM/s | 78000 M⁻¹ s⁻¹ | 2920 pM/s | 260000 M⁻¹ s⁻¹ | Probe Cleavage (pM/s) [17]: 11700 pM/s; Probe Cleavage (pM/s) [18]: 66.4 pM/s |
| membrane type serine protease 1 (MT-SP1) (protein) VVGGTDADEGEWPWQVSLHALGQGHICGASLISPNWLVSAAHCYIDDRGFRYSDPTQWTAFLGLHDQSQRSAPGVQERRLKRIISHPFFNDFTFDYDIALLELEKPAEYSSMVRPICLPDASHVFPAGKAIWVTGWGHTQYGGTGALILQKGEIRVINQTTCENLLPQQITPRMMCVGFLSGGVDSCQGDSGGPLSSVEADGRIFQAGVVSWGDGCAQRNKPGVYTRLPLFRDWIKENTGV | 17000 pM/s | 595 pM/s | 1520 pM/s | 812 pM/s | 16500 pM/s | 15300 pM/s | 18000 pM/s | 15800 pM/s | 31000 M⁻¹ s⁻¹ | 1230 pM/s | 13100 pM/s | 5.1 pM/s | 13 pM/s | 80000 M⁻¹ s⁻¹ | 2330 pM/s | 1290 pM/s | 7620 pM/s | 150000 M⁻¹ s⁻¹ | 7810 pM/s | 48000 M⁻¹ s⁻¹ | Probe Cleavage (pM/s) [17]: 2390 pM/s; Probe Cleavage (pM/s) [18]: 10600 pM/s |

From patent US20250215095
